Substitutions are numbered along the chain they refer to.
T1: human islet-amyloid polypeptide (IAPP) (human)
T1 construct: also called hIAPP; human IAPP
T1 peptide: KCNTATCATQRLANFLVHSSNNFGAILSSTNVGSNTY

T2: rat IAPP (rat, UniProt P12969 38-74)
T2 peptide (looked up): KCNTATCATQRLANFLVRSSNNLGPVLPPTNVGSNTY

T3: peptide NTATCATQRL, amino acids 3-12 of hIAPP (human)
T3 peptide: NTATCATQRL

B1: chimeric mouse-human 6B8 antibody (antibody, V domains shown)
VH: QVQLQQPGAELVKPGASVRLSCKASGYTFTSYWMHWVKQRPGQGLEWLGEINPRNGHSNYNEKIRNKATLTADTSSSTVSMQLSSLTSEDSAVYYCTVNRGFYYFFDVWGTGTTVTVSS
VL: DVLMTQSPLSLPVSLGDQASISCRSSQSIAHSNGNTYLEWYLQKPGQSPKLLIYKVSNRFSGVPDRFSGSGSGTDFTLKISRVEAEDLGVYYCFQGSHIPRTFGGGTKLEIKR
notes: Mouse 6B8 variable regions with human constant regions; captured on an anti-human chip; also called ch6B8; chimeric 6B8 antibody
B2: murine 6B8 antibody (LA21-6B8) (antibody, V domains shown)
VH: B1 VH
VL: B1 VL
notes: also called m6B8; mouse 6B8
B3: humanized 6B8 H2L1 antibody (antibody, V domains shown)
VH: QVQLQQSGAEVKKPGASVKVSCKASGYTFTSYWMHWVRQRPGQGLEWMGEINPRNGHSNYNEKIRNRVTMTADTSTSTVYMELSSLRSEDTAVYYCTVNRGFYYFFDVWGQGTTVTVSS
VL: B1 VL with S14T, L15P, D17E, Q18P, K50Q, L88V
notes: Only variable regions are tied to the tested antibody; also called h6B8-H2L1; h6B8 H2L1

Legend:
[1] = target: T1, human islet-amyloid polypeptide (IAPP); assay: Biacore SPR; affinity compared with murine 6B8 as reference
Procedure: (§1) The affinity of various combinations of 6B8 humanized heavy chains and humanized light chain proteins for hIAPP was analyzed on a Biacore instrument. Biacore analysis was performed by preparing an anti-human CM5 chip following the protocol provided in the kit. The 6B8 antibody was captured such that the maximum binding of rat IAPP would not exceed 20-30 RU. […] Data was blank subtracted to both an irrelevant sensor not containing 6B8 and 0 IAPP concentration to account for the dissociation of 6B8 from the anti-human capture. Data was then analyzed using a global 1:1 fit.

rat IAPP [2] = target: T2, rat IAPP; assay: Biacore SPR; antibody captured on anti-human CM5 chip, rat IAPP flowed over; global 1:1 fit
Procedure: as §1

rat IAPP [3] = target: T2, rat IAPP; assay: not stated for the murine antibody; sentence follows the Biacore results
[4] = target: T3, peptide NTATCATQRL, amino acids 3-12 of …; assay: epitope mapping against shorter peptides from hIAPP
rat IAPP [5] = target: T2, rat IAPP; assay: Biacore SPR (result of Example 7 told in the description)
Procedure: as §1

Binder	fold of the affinity of the murine 6B8 antibody [1] [fold]	Kd (rat IAPP [2]) [nM]	koff (rat IAPP [2]) [s⁻¹]	kon (rat IAPP [2]) [M⁻¹ s⁻¹]	fold difference in affinity against the murine 6B8 antibody (rat IAPP [3]) [fold]	binding result [4]	factor of affinity against the mouse-human chimeric 6B8 antibody (rat IAPP [5]) [fold]
B1	≤ 3	23.4	0.00513	220000	≤ 3	–	–
B2	–	–	–	–	–	binds	–
B3	≤ 3	31.2	0.00832	266000	≤ 3	–	≤ 1.5

Source: US20150110777A1 (PROTHENA BIOSCIENCES, published 2015)
